In article PMC7610252 (Biochemistry, 2017):

T1: FixX subunit of the FixABCX complex from Azotobacter vinelandii (Azotobacter vinelandii, UniProt P53658 1-94)
T1 sequence (looked up): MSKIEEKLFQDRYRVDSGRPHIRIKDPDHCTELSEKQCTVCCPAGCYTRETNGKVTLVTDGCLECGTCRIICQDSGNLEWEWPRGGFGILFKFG

B1: FixB subunit of the FixABCX complex from Azotobacter vinelandii (natural protein, UniProt P53574 2-360, looked up)
chain: SEQPKKPTKKKVELDPRFVDVRHVWVCIESERGVVHPVSWELLGEGRKSVDALGGELYGVVICGPGERGKEICGEPVQHGADKAYLLQHEILRDYRNEPYTKALTDLVTATQPEILMLGATTLGRDLAGSVATTLGTGLVADCTELVIDTETRNLASTRPTFDGSLLCKPSSAQRHRPQMATVRPRMAMPEPDASRSGEIIEVPFSMIETDIITKVLEFIPDDTRDKPNLPFADIIVAGGRGLRNQENFQLVWDLAKVLGAEVGASRPIVQAGWAELDRQVGQSGKTVRPKLYIAAGISGAIQHRVGMDGADVIIAINTDPNAPIFDFAHYGIVGNAITVLPALTEAFKARLGQLKKAG
B2: FixA subunit of the FixABCX complex from Azotobacter vinelandii (natural protein, UniProt P53576 1-281, looked up)
chain: MHSVVCIKQLPDSAQIRVHPVTNTIMRQGVPAIINPYDLFALEEALRLKDKFGGTVTVVTMGPPMAEAALRKCLSFGADDAILVSDRAFAGSDTLATSYALSAVIRKIMEDMPVDLIFTGKQTIDGDTAQVGPGIAKRLDYQLLTYVSRIVDVDTAKKEIQVERRAEGGVQLLETSLPCLITMLEGTNEMRFGDLDDLFRAARHELKVWDRVAAGIDTVEMIGLKGSPTVVSKVFAPKPRSKRAELIESHDSDPKNLAEAALAKLFTQHPNLEQEIAKRAV
B3: FixC subunit of the FixABCX complex from Azotobacter vinelandii (natural protein, UniProt P53572 2-427, looked up)
chain: AERFDVIVVGAGMAGNAAAYTLAKGGLKVLQIERGETPGSKNVQGAILYADAIEKIIPDFRDDAPLERHLIEQRVWVMDDASYGYHYRSEDFNKPPYNRYTIIRVHFDQWFNKKAREAGVLTICETRHDLLIEGGKVVGVRTDRQGGEVRADAVILADGVNSRLAVKAGFSRDQPENWALAVKEIHFLPQETMEARFNIGEEEAAIEMAGKIDAGMMGTGFLYTNKESITLGVGCMLSDFKQQKISPYELLDRMKTHPSIAPLIAGSDMKEYAAHLIPEGGYNAIPQVYGDGWMIAGDAPIRHGIHREGSNLAMTTGMLAAQTLVELRAADKPFSAANLAEYKKKLDDSFVMKDLKKYRRMPEIFHKNKQFFTTYPDLLSRAAQTLIRVDGVDKKTKEKEIKKSFIGLRSLFGLIGDAFKFWRAVE

Key:
[1] = target: FixAB from Rhodospirillum rubrum (Rhodospirillum rubrum, UniProt Q6US86+Q6US87); assay: transient absorption spectroscopy of bound flavin; assay type: binding; conditions: FAD-reconstituted, as-isolated oxidized state; room temperature
[2] = target: B3; assay: co-purification
[3] = target: B1; assay: co-purification
[4] = target: T1, FixX subunit of the FixABCX complex …; assay: co-purification

Cc1cc2nc3c(=O)[nH]c(=O)nc-3n(C[C@H](O)[C@H](O)[C@H](O)COP(=O)(O)OP(=O)(O)OC[C@H]3O[C@@H](n4cnc5c(N)ncnc54)[C@H](O)[C@@H]3O)c2cc1C [FAD]
transient absorption spectroscopy of bound flavin [1]: two ASQ species can be formed in the FixAB unit, consistent with the presence of two flavins

B1
stoichiometry N [2]: 1

B2
stoichiometry N [3]: 1

B3
stoichiometry N [4]: 1
